Our source for the EC50, AUC(0-inf) and level values is patent US12097241B2, “Methods of treating kidney failure, and/or improving or stablizing renal function using modified relaxin polypeptides” (BRISTOL-MYERS SQUIBB COMPANY, priority 2017, dated 2024).

In one data set the target is T1, human RXFP1 receptor (Homo sapiens, UniProt Q9HBX9).
T1 construct: expressed in transfected cells
T1 sequence (Q9HBX9 1-757): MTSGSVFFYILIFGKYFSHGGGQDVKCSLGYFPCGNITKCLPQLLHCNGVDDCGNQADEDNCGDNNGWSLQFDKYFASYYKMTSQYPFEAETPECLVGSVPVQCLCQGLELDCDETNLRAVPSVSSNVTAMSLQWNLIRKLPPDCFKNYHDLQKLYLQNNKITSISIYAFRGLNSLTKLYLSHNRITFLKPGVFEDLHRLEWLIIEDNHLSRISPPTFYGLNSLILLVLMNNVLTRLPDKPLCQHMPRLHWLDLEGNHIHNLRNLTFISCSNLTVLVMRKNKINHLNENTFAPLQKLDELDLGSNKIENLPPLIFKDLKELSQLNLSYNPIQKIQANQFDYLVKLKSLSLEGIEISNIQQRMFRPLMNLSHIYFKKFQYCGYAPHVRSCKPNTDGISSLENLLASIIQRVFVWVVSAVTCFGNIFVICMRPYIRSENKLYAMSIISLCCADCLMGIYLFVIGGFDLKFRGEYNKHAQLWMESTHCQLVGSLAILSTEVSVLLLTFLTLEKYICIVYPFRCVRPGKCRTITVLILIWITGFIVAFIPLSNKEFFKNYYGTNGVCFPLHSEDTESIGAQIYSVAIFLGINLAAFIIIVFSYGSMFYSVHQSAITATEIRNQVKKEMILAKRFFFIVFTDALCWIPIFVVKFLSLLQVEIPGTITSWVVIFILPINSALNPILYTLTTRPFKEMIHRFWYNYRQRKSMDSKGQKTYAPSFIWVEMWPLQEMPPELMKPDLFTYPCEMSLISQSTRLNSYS
Kind of data set: Intracellular cAMP accumulation assay. The data set is classed as cell-based. Conditions: for EC50: CHO-K1 cells stably expressing human RXFP1, 10 min at 37° C., HTRF cAMP, average, read-out: hRXFP1/CHO-K1 cAMP EC50 (nM, avg). (Cyclic AMP is a second messenger, typically raised through Gs and lowered through Gi signalling.)

The nature of data set [1]: In vivo pharmacokinetic (PK) studies in rats. Details: species or system Sprague-Dawley rats. Conditions: rat; for AUC(0-inf): read-out: Rat PK AUC Total; for level at time molar at 24 h: read-out: Rat PK C24. A digest of the protocol: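 Male Sprague-Dawley rats (n=3) given a single 1 mg/kg IV or SC dose of relaxin constructs in 20 mM histidine, 750 mM NaCl, pH 6.0; jugular serum sampled to 72 h. Serum relaxin by ELISA; Cmax, AUCinf, C24 and half-life from non-compartmental analysis of individual profiles.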

Setting [2] is: male Sprague-Dawley rats, single SC dose 1.0 mg/kg, serum ELISA.
[3] abbreviates: male, Sprague-Dawley, serum, rats, SC dose 0.8 mg/kg.

The structures appear in SMILES notation. pEC50: −log10 of the molar value. Like-named read-outs stand apart in the source and are kept apart here.

Method for human RXFP1 receptor: The intracellular cAMP accumulation assay described herein was used to assess relaxin bioactivity and potency.
CHO-K1 cells (ATCC; Cat. #CRL-9618) stably expressing the human RXFP1 receptor (locus number LOC59350) (10,000/well) were plated into 96-well plates and cultured overnight at 37° C. and 5% CO2. On the following day, the medium was removed from the wells and the cells were stimulated with the addition of ligand (relaxin polypeptide) in 50 uL buffer (1×HBSS, 5 mM HEPES (7.2), 0.5 mM IBMX, 0.1% BSA); incubation was for 10 min at 37° C. Unstimulated cells were utilized as reference controls. Reactions were terminated and cellular cAMP levels were measured using the Homogeneous Time Resolved Fluorescence (HTRF) Dynamic 2 cAMP kit (CisBio, #62AM4PEC) according to the manufacturer's protocol. Plates were analyzed using an EnVision 2104 Multilablel Reader (PerkinElmer). Signal was expressed in terms of the ratio of fluorescence intensity @ 665 nm/fluorescence intensity @620 nm×10,000. The concentration of cAMP in the sample was determined by comparison with standard curves generated from known concentrations of cAMP. The potency of each relaxin was determined using a ten-point concentration response curves which was performed in duplicate. The data were analyzed using Microsoft Excel, Version 2013 Xlfit software. Effective concentration 50 (EC50) values, the point at which the response was one-half maximal, were calculated using a four-parameter logistic equation that allowed for a variable-slope (Table 3).

In the case of `CC[C@H](C)[C@@H]1NC(=O)[C@H](C)NC(=O)[C@H]([C@@H](C)CC)NC(=O)[C@H](CCC(N)=O)NC(=O)[C@H](C)NC(=O)[C@H](CCCNC(=N)N)NC(=O)[C@H](C(C)C)NC(=O)[C@H](CC(C)C)NC(=O)[C@H](CCC(=O)O)NC(=O)[C@H](CCCNC(=N)N)NC(=O)CNC(=O)[C@@H](NC(=O)[C@H](CC(C)C)NC(=O)[C@H](CCCCN)NC(=O)[C@@H](NC(=O)[C@@H](NC(=O)[C@H](CCC(=O)O)NC(=O)[C@H](CCC(=O)O)NC(=O)[C@H](CCSC)NC(=O)[C@H](Cc2c[nH]c3ccccc23)NC(=O)[C@H](CO)NC(=O)[C@H](C)N)C(C)C)[C@@H](C)CC)CSSC[C@@H]2NC(=O)[C@@H](NC(=O)[C@H](CCCCN)NC(=O)[C@H](CC(N)=O)NC(=O)[C@H](C)NC(=O)[C@H](CC(C)C)NC(=O)[C@H](C)NC(=O)[C@H](CO)NC(=O)[C@H](Cc3ccc(O)cc3)NC(=O)[C@H](CC(C)C)NC(=O)[C@@H](N)Cc3ccc(C(C)=NOCCNC(=O)[C@H](CCC(=O)O)NC(=O)[C@H](CCC(=O)O)NC(=O)[C@H](CCC(=O)O)NC(=O)CNC(=O)CNC(=O)CNC(=O)CC[C@H](NC(=O)CCCCCCCCCCCCC(=O)O)C(=O)O)cc3)CSSC[C@H](NC(=O)CNC(=O)[C@H](C(C)C)NC(=O)[C@H](Cc3c[nH]cn3)NC2=O)C(=O)N[C@@H]([C@@H](C)O)C(=O)N[C@@H](CCCCN)C(=O)N[C@@H](CCCNC(=N)N)C(=O)N[C@@H](CO)C(=O)N[C@@H](CC(C)C)C(=O)N[C@@H](C)C(=O)N[C@@H](CCCNC(=N)N)C(=O)N[C@@H](Cc2ccccc2)C(=O)N[C@H](C(=O)O)CSSC[C@@H](C(=O)NCC(=O)N[C@@H](CCSC)C(=O)N[C@@H](CO)C(=O)N[C@H](C(=O)N[C@@H](Cc2c[nH]c3ccccc23)C(=O)N[C@@H](CO)C(=O)O)[C@@H](C)O)NC1=O` [AQ1-EEEGGG-Glu^γ-C13-COOH], the EC50 at human RXFP1 receptor stood at 0.31 nM. Besides, in data set [1] (setting [2]), the AUC(0-inf) is 1.38 µM·h and the level at time molar at 24 h came out at 0.29 nM.
At human RXFP1 receptor, `CC[C@H](C)[C@@H]1NC(=O)[C@H](C)NC(=O)[C@H]([C@@H](C)CC)NC(=O)[C@H](CCC(N)=O)NC(=O)[C@H](C)NC(=O)[C@H](CCCNC(=N)N)NC(=O)[C@H](C(C)C)NC(=O)[C@H](CC(C)C)NC(=O)[C@H](CCC(=O)O)NC(=O)[C@H](CCCNC(=N)N)NC(=O)CNC(=O)[C@@H](NC(=O)[C@H](CC(C)C)NC(=O)[C@H](CCCCN)NC(=O)[C@@H](NC(=O)[C@@H](NC(=O)[C@H](CCC(=O)O)NC(=O)[C@H](CCC(=O)O)NC(=O)[C@H](CCSC)NC(=O)[C@H](Cc2c[nH]c3ccccc23)NC(=O)[C@H](CO)NC(=O)[C@H](C)N)C(C)C)[C@@H](C)CC)CSSC[C@@H]2NC(=O)[C@@H](NC(=O)[C@H](CCCCN)NC(=O)[C@H](CC(N)=O)NC(=O)[C@H](C)NC(=O)[C@H](CC(C)C)NC(=O)[C@H](C)NC(=O)[C@H](CO)NC(=O)[C@H](Cc3ccc(O)cc3)NC(=O)[C@H](CC(C)C)NC(=O)[C@@H](N)Cc3ccc(C(C)=NOCCNC(=O)CNC(=O)CNC(=O)CNC(=O)CNC(=O)[C@@H]4CCCN4C(=O)CC[C@H](NC(=O)CCCCCCCCCCCCCC(=O)O)C(=O)O)cc3)CSSC[C@H](NC(=O)CNC(=O)[C@H](C(C)C)NC(=O)[C@H](Cc3c[nH]cn3)NC2=O)C(=O)N[C@@H]([C@@H](C)O)C(=O)N[C@@H](CCCCN)C(=O)N[C@@H](CCCNC(=N)N)C(=O)N[C@@H](CO)C(=O)N[C@@H](CC(C)C)C(=O)N[C@@H](C)C(=O)N[C@@H](CCCNC(=N)N)C(=O)N[C@@H](Cc2ccccc2)C(=O)N[C@H](C(=O)O)CSSC[C@@H](C(=O)NCC(=O)N[C@@H](CCSC)C(=O)N[C@@H](CO)C(=O)N[C@H](C(=O)N[C@@H](Cc2c[nH]c3ccccc23)C(=O)N[C@@H](CO)C(=O)O)[C@@H](C)O)NC1=O` [AQ1-GGGGP-Glu^γ-C14-COOH] showed a pEC50 of 9.41. Also, in data set [1] (setting [2]), the AUC(0-inf) is 2.18 µM·h and the level at time molar at 24 h stood at 3.9 nM.
Regarding `CC[C@H](C)[C@@H]1NC(=O)[C@H](C)NC(=O)[C@H]([C@@H](C)CC)NC(=O)[C@H](CCC(N)=O)NC(=O)[C@H](C)NC(=O)[C@H](CCCNC(=N)N)NC(=O)[C@H](C(C)C)NC(=O)[C@H](CC(C)C)NC(=O)[C@H](CCC(=O)O)NC(=O)[C@H](CCCNC(=N)N)NC(=O)CNC(=O)[C@@H](NC(=O)[C@H](CC(C)C)NC(=O)[C@H](CCCCN)NC(=O)[C@@H](NC(=O)[C@@H](NC(=O)[C@H](CCC(=O)O)NC(=O)[C@H](CCC(=O)O)NC(=O)[C@H](CCSC)NC(=O)[C@H](Cc2c[nH]c3ccccc23)NC(=O)[C@H](CO)NC(=O)[C@H](C)N)C(C)C)[C@@H](C)CC)CSSC[C@@H]2NC(=O)[C@@H](NC(=O)[C@H](CCCCN)NC(=O)[C@H](CC(N)=O)NC(=O)[C@H](C)NC(=O)[C@H](CC(C)C)NC(=O)[C@H](C)NC(=O)[C@H](CO)NC(=O)[C@H](Cc3ccc(O)cc3)NC(=O)[C@H](CC(C)C)NC(=O)[C@@H](N)Cc3ccc(C(C)=NOCCNC(=O)CNC(=O)CNC(=O)CNC(=O)CNC(=O)[C@H](CO)NC(=O)CC[C@H](NC(=O)CCCCCCCCCCCCC(=O)O)C(=O)O)cc3)CSSC[C@H](NC(=O)CNC(=O)[C@H](C(C)C)NC(=O)[C@H](Cc3c[nH]cn3)NC2=O)C(=O)N[C@@H]([C@@H](C)O)C(=O)N[C@@H](CCCCN)C(=O)N[C@@H](CCCNC(=N)N)C(=O)N[C@@H](CO)C(=O)N[C@@H](CC(C)C)C(=O)N[C@@H](C)C(=O)N[C@@H](CCCNC(=N)N)C(=O)N[C@@H](Cc2ccccc2)C(=O)N[C@H](C(=O)O)CSSC[C@@H](C(=O)NCC(=O)N[C@@H](CCSC)C(=O)N[C@@H](CO)C(=O)N[C@H](C(=O)N[C@@H](Cc2c[nH]c3ccccc23)C(=O)N[C@@H](CO)C(=O)O)[C@@H](C)O)NC1=O` [AQ1-GGGGS-Glu^γ-C13-COOH], the EC50 on human RXFP1 receptor stood at 0.14 nM. Further, in data set [1] (setting [3]), the AUC(0-inf) came to 1.1 µM·h and the level at time molar at 24 h was 1.52 nM.
Consider `CC[C@H](C)[C@@H]1NC(=O)[C@H](C)NC(=O)[C@H]([C@@H](C)CC)NC(=O)[C@H](CCC(N)=O)NC(=O)[C@H](C)NC(=O)[C@H](CCCNC(=N)N)NC(=O)[C@H](C(C)C)NC(=O)[C@H](CC(C)C)NC(=O)[C@H](CCC(=O)O)NC(=O)[C@H](CCCNC(=N)N)NC(=O)CNC(=O)[C@@H](NC(=O)[C@H](CC(C)C)NC(=O)[C@H](CCCCN)NC(=O)[C@@H](NC(=O)[C@@H](NC(=O)[C@H](CCC(=O)O)NC(=O)[C@H](CCC(=O)O)NC(=O)[C@H](CCSC)NC(=O)[C@H](Cc2c[nH]c3ccccc23)NC(=O)[C@H](CO)NC(=O)[C@H](C)N)C(C)C)[C@@H](C)CC)CSSC[C@@H]2NC(=O)[C@@H](NC(=O)[C@H](CCCCN)NC(=O)[C@H](CC(N)=O)NC(=O)[C@H](C)NC(=O)[C@H](CC(C)C)NC(=O)[C@H](C)NC(=O)[C@H](CO)NC(=O)[C@H](Cc3ccc(O)cc3)NC(=O)[C@H](CC(C)C)NC(=O)[C@@H](N)Cc3ccc(/C(C)=N/OCCNC(=O)CNC(=O)[C@H](CO)NC(=O)[C@H](Cc4c[nH]cn4)NC(=O)[C@H](Cc4c[nH]cn4)NC(=O)[C@H](Cc4c[nH]cn4)NC(=O)[C@H](Cc4c[nH]cn4)NC(=O)[C@H](Cc4c[nH]cn4)NC(=O)CNC(=O)[C@H](CO)NC(=O)CC[C@H](NC(=O)CCCCCCCCCCCCC(=O)O)C(=O)O)cc3)CSSC[C@H](NC(=O)CNC(=O)[C@H](C(C)C)NC(=O)[C@H](Cc3c[nH]cn3)NC2=O)C(=O)N[C@@H]([C@@H](C)O)C(=O)N[C@@H](CCCCN)C(=O)N[C@@H](CCCNC(=N)N)C(=O)N[C@@H](CO)C(=O)N[C@@H](CC(C)C)C(=O)N[C@@H](C)C(=O)N[C@@H](CCCNC(=N)N)C(=O)N[C@@H](Cc2ccccc2)C(=O)N[C@H](C(=O)O)CSSC[C@@H](C(=O)NCC(=O)N[C@@H](CCSC)C(=O)N[C@@H](CO)C(=O)N[C@H](C(=O)N[C@@H](Cc2c[nH]c3ccccc23)C(=O)N[C@@H](CO)C(=O)O)[C@@H](C)O)NC1=O` [AQ1-GSHHHHHGS-Glu^γ-C13-COOH], for which, at human RXFP1 receptor, the EC50 came out at 0.28 nM. Further, in data set [1] (setting [2]), the AUC(0-inf) is 0.582 µM·h and the level at time molar at 24 h is 0.46 nM.

What is called pEC50 is the EC50 on a negative log10 scale, so that one unit is a factor of ten. Lower therefore signals a high EC50.
